Experimental data taken from US20120316071A1 (published 2012).

T1: rHuman Erythropoietin R/Fc Chimera, CF (R&D Systems Cat#963-ER) (human, UniProt P19235 25-250)
T1 construct: Bought recombinant protein; also called EPO R; EPO R/Fc; Fc part of the bought chimera not given
T1 sequence (looked up): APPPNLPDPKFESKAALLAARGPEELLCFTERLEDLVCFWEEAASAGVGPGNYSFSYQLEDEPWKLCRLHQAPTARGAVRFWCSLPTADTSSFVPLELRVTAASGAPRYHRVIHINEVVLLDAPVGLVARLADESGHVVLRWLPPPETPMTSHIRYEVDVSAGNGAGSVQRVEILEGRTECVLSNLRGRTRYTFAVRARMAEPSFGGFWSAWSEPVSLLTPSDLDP

T2: rHuman Erythropoietin R/Fc Chimera, CF (R&D Systems Cat#963-ER) (human, UniProt P19235 25-250)
T2 construct: Bought recombinant protein; also called EPO R; EPO R/Fc; Fc part of the bought chimera not given
T2 sequence (looked up): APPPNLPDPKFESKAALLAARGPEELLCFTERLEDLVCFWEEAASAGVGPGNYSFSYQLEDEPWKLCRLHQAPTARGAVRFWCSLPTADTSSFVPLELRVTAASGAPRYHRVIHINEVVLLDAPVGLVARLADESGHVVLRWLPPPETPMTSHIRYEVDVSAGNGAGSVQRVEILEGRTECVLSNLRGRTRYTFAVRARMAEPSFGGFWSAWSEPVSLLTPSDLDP


What was measured:
[1] = molecular target: T3, rHuman ErbB2/Fc Chimera, CF (R&D Systems Cat#1129-ER) (human, UniProt P04626 23-652); test: ECL (MSD) multispot binding assay, antigen spotted on plate, 20 nM Fab;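 also: purified Fab incubated 1 h at 20 °C on antigen-spotted plate, bound Fab revealed with TAG detection antibody, ECL read, antigen signal divided by same-well blank, ratio ≥4 counted as hit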
T3 construct: Bought recombinant protein; also called human epidermal growth factor 2 receptor; Fc part of the bought chimera not given

[2] = molecular target: T4, rHuman EGF R/Fc Chimera, CF (R&D Systems Cat#344-ER) (human, UniProt P00533 25-645); test: as above
T4 construct: Bought recombinant protein; also called epidermal growth factor receptor; Fc part of the bought chimera not given

[3] = molecular target: T5, rHuman HGF R/c-MET/Fc Chimera, CF (R&D Systems Cat#358-MT/CF) (human, UniProt P08581 25-932); test: as above
T5 construct: Bought recombinant protein; also called HGF R/Fc; hepatocyte growth factor receptor; Fc part of the bought chimera not given
T5 sequence (P08581 25-932, change not shown): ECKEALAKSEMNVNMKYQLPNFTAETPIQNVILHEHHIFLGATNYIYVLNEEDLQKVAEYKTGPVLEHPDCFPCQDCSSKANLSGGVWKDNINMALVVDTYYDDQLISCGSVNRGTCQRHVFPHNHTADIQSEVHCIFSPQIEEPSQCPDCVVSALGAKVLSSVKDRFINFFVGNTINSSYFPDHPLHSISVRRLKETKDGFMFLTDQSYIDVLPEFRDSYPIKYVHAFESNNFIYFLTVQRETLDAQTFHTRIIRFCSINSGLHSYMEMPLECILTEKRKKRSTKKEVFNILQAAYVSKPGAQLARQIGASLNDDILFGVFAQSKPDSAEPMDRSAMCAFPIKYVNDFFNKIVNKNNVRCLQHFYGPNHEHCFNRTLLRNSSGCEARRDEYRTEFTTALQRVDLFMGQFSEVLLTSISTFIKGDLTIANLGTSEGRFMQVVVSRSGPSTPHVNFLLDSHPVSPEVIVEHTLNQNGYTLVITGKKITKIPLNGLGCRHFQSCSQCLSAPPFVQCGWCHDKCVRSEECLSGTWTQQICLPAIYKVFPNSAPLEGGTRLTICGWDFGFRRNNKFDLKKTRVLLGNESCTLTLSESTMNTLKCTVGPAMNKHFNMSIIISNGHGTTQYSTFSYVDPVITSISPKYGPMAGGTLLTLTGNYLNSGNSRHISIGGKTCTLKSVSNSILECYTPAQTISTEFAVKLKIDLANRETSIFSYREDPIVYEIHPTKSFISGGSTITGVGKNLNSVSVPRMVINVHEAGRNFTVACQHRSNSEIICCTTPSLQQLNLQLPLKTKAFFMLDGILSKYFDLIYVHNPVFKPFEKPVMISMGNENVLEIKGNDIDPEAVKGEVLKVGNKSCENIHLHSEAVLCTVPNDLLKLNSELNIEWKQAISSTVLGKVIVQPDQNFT

[4] = molecular target: T6, rHuman Notch-1/Fc Chimera, CF (R&D Systems Cat#3647-TK) (human, UniProt P46531 19-526); test: as above
T6 construct: Bought recombinant protein; Fc part of the bought chimera not given

[5] = molecular target: T7, rHuman CD44/Fc Chimera, CF (R&D Systems Cat#3660-CD) (human, UniProt P16070 21-220); test: as above
T7 construct: Bought recombinant protein; Fc part of the bought chimera not given

[6] = molecular target: T8, rHuman IGF-1 sR, (IGF-1 sR), CF (R&D Systems Cat#391-GR) (human, UniProt P08069 31-932); test: as above
T8 construct: Bought recombinant soluble receptor; also called insulin-like growth factor-1 soluble receptor

[7] = molecular target: T9, rHuman P-Cadherin/Fc Chimera, CF (R&D Systems Cat#861-PC) (human, UniProt P22223 108-654); test: as above
T9 construct: Bought recombinant protein; Fc part of the bought chimera not given

[8] = molecular target: T1, rHuman Erythropoietin R/Fc Chimera, CF …; test: as above
[9] = molecular target: T10, Recombinant Human DLL4 (R&D Systems Cat#1506-D4/CF) (human, UniProt Q9NR61 27-524); test: as above
T10 construct: Bought recombinant protein; also called delta-like protein 4; rHuman DLL4

[10] = molecular target: T11, rHuman CD44/Fc Chimera, CF (R&D Systems Cat#3660-CD) (human, UniProt P16070 21-220); test: ECL multispot (MSD) assay, antigen spotted on plate, 20 nM Fab;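 also: purified Fab bound to plate-spotted antigen for 1 h at 20 °C, labelled detection antibody added, ratio of antigen ECL signal to same-well blank, ratio ≥4 counted as binder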
T11 construct: Bought recombinant protein; Fc part of the bought chimera not given

[11] = molecular target: T12, rHuman IGF-1 sR, CF (R&D Systems Cat#391-GR) (human, UniProt P08069 31-932); test: as above
T12 construct: Bought soluble receptor; also called insulin-like growth factor-1 soluble receptor

[12] = molecular target: T13, rHuman P-Cadherin/Fc Chimera, CF (R&D Systems Cat#861-PC) (human, UniProt P22223 108-654); test: as above
T13 construct: Bought recombinant protein; Fc part of the bought chimera not given

[13] = molecular target: T2, rHuman Erythropoietin R/Fc Chimera, CF …; test: as above
[14] = molecular target: T14, Recombinant Human DLL4 (R&D Systems Cat#1506-D4/CF) (human, UniProt Q9NR61 27-524); test: as above
T14 construct: Bought recombinant protein; also called delta-like protein 4; rHuman DLL4

[15] = molecular target: T15, rHuman ErbB2/Fc Chimera, CF (R&D Systems Cat#1129-ER) (human, UniProt P04626 23-652); test: as above
T15 construct: Bought recombinant protein; also called human epidermal growth factor 2 receptor; Fc part of the bought chimera not given

[16] = molecular target: T16, rHuman EGF R/Fc Chimera, CF (R&D Systems Cat#344-ER) (human, UniProt P00533 25-645); test: as above
T16 construct: Bought recombinant protein; also called epidermal growth factor receptor; Fc part of the bought chimera not given

[17] = molecular target: T17, rHuman Notch-1/Fc Chimera, CF (R&D Systems Cat#3647-TK) (human, UniProt P46531 19-526); test: as above
T17 construct: Bought recombinant protein; Fc part of the bought chimera not given

Binder | ECL signal/blank ratio [1] | ECL signal/blank ratio [2] | ECL signal/blank ratio [3] | ECL signal/blank ratio [4] | ECL signal/blank ratio [5] | ECL signal/blank ratio [6] | ECL signal/blank ratio [7] | ECL signal/blank ratio [8] | ECL signal/blank ratio [9] | ECL signal/blank ratio (read-out not given) [10] | ECL signal/blank ratio (read-out not given) [11] | ECL signal/blank ratio (read-out not given) [12] | ECL signal/blank ratio (read-out not given) [13] | ECL signal/blank ratio (read-out not given) [14] | ECL signal/blank ratio (read-out not given) [15] | ECL signal/blank ratio (read-out not given) [16] | ECL signal/blank ratio (read-out not given) [17]
Fab VH3-23_IGHD2-21*01>3_IGHJ6*01 H100E/S108P/Y113G/Y110G & V2-13_IGLJ2*01 (Fab, V domains shown, Fab made in E. coli: VH joined to CH1 (with His and Flag tags, plasmid A) and VL to lambda CL (plasmid E); also called EPG Y110G) VH: not shown VL: SSELTQDPAVSVALGQTVRITCQGDSLRSYYASWYQQKPGQAPVLVIYGKNNRPSGIPDRFSGSSSGNTASLTITGAQAEDEADYYCNSRDSSGNHLVVFGGGTKLTVL | 1.3 | 1.5 | 1 | 1.6 | 1 | 1.4 | 0.8 | 2 | 1.3 | – | – | – | – | – | – | – | –
Fab VH3-23_IGHD2-21*01>3_IGHJ6*01 H100E/S108P/Y113G T58A & V2-13_IGLJ2*01 (Fab, V domains shown, Tested as a Fab made in E. coli; also called EPG T58A) VH: EVQLLESGGGLVQPGGSLRLSCAASGFTFSSYAMSWVRQAPGKGLEWVSSISGSGGSAYYADSVKGRFTISRDNSKNTLYLQMNSLRAEDTAVYYCAKEEIVVVIAIPYYYYGYGMDVWGQGTLVTVSS VL: SSELTQDPAVSVALGQTVRITCQGDSLRSYYASWYQQKPGQAPVLVIYGKNNRPSGIPDRFSGSSSGNTASLTITGAQAEDEADYYCNSRDSSGNHLVVFGGGTKLTVL | – | – | – | – | – | – | – | – | – | 1.5 | 1.2 | 36.9 | 158 | 2.3 | 15.9 | 9.6 | –
Fab VH3-23_IGHD2-21*01>3_IGHJ6*01 H100E/S108P/Y113G A61T & V2-13_IGLJ2*01 (Fab, V domains shown, Tested as a Fab made in E. coli; also called EPG A61T) VH: EVQLLESGGGLVQPGGSLRLSCAASGFTFSSYAMSWVRQAPGKGLEWVSSISGSGGSTYYTDSVKGRFTISRDNSKNTLYLQMNSLRAEDTAVYYCAKEEIVVVIAIPYYYYGYGMDVWGQGTLVTVSS VL: SSELTQDPAVSVALGQTVRITCQGDSLRSYYASWYQQKPGQAPVLVIYGKNNRPSGIPDRFSGSSSGNTASLTITGAQAEDEADYYCNSRDSSGNHLVVFGGGTKLTVL | – | – | – | – | – | – | – | – | – | 2 | 1.6 | 20.9 | – | 2.6 | 11.2 | 7.1 | 2.9
Fab VH3-23_IGHD2-21*01>3_IGHJ6*01 H100E/S108P/Y113G D62A & V2-13_IGLJ2*01 (Fab, V domains shown, Tested as a Fab made in E. coli; also called EPG D62A) VH: EVQLLESGGGLVQPGGSLRLSCAASGFTFSSYAMSWVRQAPGKGLEWVSSISGSGGSTYYAASVKGRFTISRDNSKNTLYLQMNSLRAEDTAVYYCAKEEIVVVIAIPYYYYGYGMDVWGQGTLVTVSS VL: SSELTQDPAVSVALGQTVRITCQGDSLRSYYASWYQQKPGQAPVLVIYGKNNRPSGIPDRFSGSSSGNTASLTITGAQAEDEADYYCNSRDSSGNHLVVFGGGTKLTVL | – | – | – | – | – | – | – | – | – | 2 | 1.4 | 45.8 | 244 | 2.4 | 21.7 | 11.6 | –
Fab VH3-23_IGHD2-21*01>3_IGHJ6*01 H100E/S108P/Y113G/Y111P & V2-13_IGLJ2*01 (Fab, V domains shown, Fab made in E. coli: VH joined to CH1 (with His and Flag tags, plasmid A) and VL to lambda CL (plasmid E); also called EPG Y111P) VH: not shown VL: SSELTQDPAVSVALGQTVRITCQGDSLRSYYASWYQQKPGQAPVLVIYGKNNRPSGIPDRFSGSSSGNTASLTITGAQAEDEADYYCNSRDSSGNHLVVFGGGTKLTVL | 1.6 | 1.5 | 1.7 | 1.6 | 1.3 | 1.2 | 1.3 | 1.9 | 1.4 | – | – | – | – | – | – | – | –
Fab VH3-23_IGHD2-21*01>3_IGHJ6*01 H100E/S108P/Y113G Y60A & V2-13_IGLJ2*01 (Fab, V domains shown, Tested as a Fab made in E. coli; also called EPG Y60A) VH: EVQLLESGGGLVQPGGSLRLSCAASGFTFSSYAMSWVRQAPGKGLEWVSSISGSGGSTYAADSVKGRFTISRDNSKNTLYLQMNSLRAEDTAVYYCAKEEIVVVIAIPYYYYGYGMDVWGQGTLVTVSS VL: SSELTQDPAVSVALGQTVRITCQGDSLRSYYASWYQQKPGQAPVLVIYGKNNRPSGIPDRFSGSSSGNTASLTITGAQAEDEADYYCNSRDSSGNHLVVFGGGTKLTVL | – | – | – | – | – | – | – | – | – | 1.5 | 1.2 | 25.3 | – | 2.3 | 11.5 | 6.2 | 2.6
Fab VH3-23_IGHD2-21*01>3_IGHJ6*01 H100E/S108P/Y113G/Y111E & V2-13_IGLJ2*01 (Fab, V domains shown, Fab made in E. coli: VH joined to CH1 (with His and Flag tags, plasmid A) and VL to lambda CL (plasmid E); also called EPG Y111E) VH: not shown VL: SSELTQDPAVSVALGQTVRITCQGDSLRSYYASWYQQKPGQAPVLVIYGKNNRPSGIPDRFSGSSSGNTASLTITGAQAEDEADYYCNSRDSSGNHLVVFGGGTKLTVL | 1.5 | 1.4 | 2.2 | 1.5 | 1.1 | 1.4 | 2.3 | – | 1.5 | – | – | – | – | – | – | – | –
